For one substance, OD (Xylazyme substrate, xylanase activity; 100 µl xylanolytic extract + 100 µl purified inhibitor; control without inhibitor OD 0.8), OD (Xylazyme substrate, xylanase activity; 250 µl xylanolytic extract + 100 µl purified inhibitor; control without inhibitor OD 0.867) and OD (Xylazyme substrate, xylanase activity; 500 µl xylanolytic extract + 100 µl purified inhibitor; control without inhibitor OD 1.031) results are on record in patent publication US20030138522A1.

In this assay the target is wheat extractable xylanolytic enzymes. Briefly: cell-based or functional assay.

With “purified wheat endogenous xylanase inhibitor”, the OD (Xylazyme substrate, xylanase activity; 100 µl xylanolytic extract + 100 µl purified inhibitor; control without inhibitor OD 0.8) worked out at 0.277 OD; the OD (Xylazyme substrate, xylanase activity; 250 µl xylanolytic extract + 100 µl purified inhibitor; control without inhibitor OD 0.867) worked out at 0.275 OD; the OD (Xylazyme substrate, xylanase activity; 500 µl xylanolytic extract + 100 µl purified inhibitor; control without inhibitor OD 1.031) came to 0.414 OD.
